Reference: paper PMC10819331

The sequences below were run on T1, MBP-Z3495 (LysR-type regulator) (Escherichia coli O157:H7 EDL933?), ORF:b652805f (assay: EMSA).
T1 sequence: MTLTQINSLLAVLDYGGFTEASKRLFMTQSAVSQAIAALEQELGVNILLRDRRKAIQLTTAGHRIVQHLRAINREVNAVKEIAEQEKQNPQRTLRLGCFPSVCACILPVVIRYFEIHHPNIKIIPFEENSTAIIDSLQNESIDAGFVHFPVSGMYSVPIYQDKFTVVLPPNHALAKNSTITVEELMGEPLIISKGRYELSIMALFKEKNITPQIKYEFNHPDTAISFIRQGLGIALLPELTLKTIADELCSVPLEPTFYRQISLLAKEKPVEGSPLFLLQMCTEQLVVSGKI
“AATTCCCGATTACGCATCGCACCATTGAGAAGTTTTATTTTATATGAGGATAACATTTTTAAATTTTATTCATCCTGGTGGTTGAACAATGAGAAAAAATATGGTGAACTTACATCGTCTAAGAATAGAGTAGAAAGGAAGCTGTTGTACAGTACTATTTAATGGAATATTCATAATTAAT (double strand) [LEE4 promoter]” was tested, and the binding was “no binding”. For “GTTATCGCAGGGAGCCACACAGCGTGTGTTGGACGCGACTCAGCTTTACCTTGGTGAGATTGGTTATTCACCACTGTTAACGGCCGAAGAAGAAGTTTATTTTGCGCGTCGCGCACTGCGTGGAGATGTCGCCTCTCGCCGCCGGATGATCGAGAGTAACTTGCGTCTGGTGGTAAAA (double strand) [rpoS fragment]”, the binding was “no binding”. “TAAAAACTCTTCAACGTTTCTTTTAACTAAAAGATTCATCTGCAGGCTCTGAAGTAAGTATACGTGTGAATATTATTGCTTGAAAAAGCGTATTGGATAATATATACAGTATATGTACTTTATGTACATTGCAACTATTTAAATAATATAATAGTTGCCTATGGGATAATTTGGTTATTTATAACCAGGTAAATGTCTAAATTAGACAAAAGGAGAAAGATCAATGGAAGCAGCAAATTTAAGTCCTTCTGGTGCAGTAATGCCGCTGGCGACCTCACTCA (double strand) [LEE2/3 promoter]” was tested, and the binding was “no binding”.
